Earlier results as cited in publication PMC8349851.

Target: PI3K p85 regulatory subunit SH3 (Homo sapiens) (UniProt P27986)
Sequence of UniProt P27986 (P27986 1-82): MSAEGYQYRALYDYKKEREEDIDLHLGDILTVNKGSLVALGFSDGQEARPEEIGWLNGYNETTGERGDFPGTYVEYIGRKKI

## obscurin PH (from UniProt Q5VST9)
  Kd: 50 nM
